{"source": "patent US20020147129A1", "target": "embryonic chicken AT4 receptor (chicken)", "sequence (F1NNE7 entry or part of it)": "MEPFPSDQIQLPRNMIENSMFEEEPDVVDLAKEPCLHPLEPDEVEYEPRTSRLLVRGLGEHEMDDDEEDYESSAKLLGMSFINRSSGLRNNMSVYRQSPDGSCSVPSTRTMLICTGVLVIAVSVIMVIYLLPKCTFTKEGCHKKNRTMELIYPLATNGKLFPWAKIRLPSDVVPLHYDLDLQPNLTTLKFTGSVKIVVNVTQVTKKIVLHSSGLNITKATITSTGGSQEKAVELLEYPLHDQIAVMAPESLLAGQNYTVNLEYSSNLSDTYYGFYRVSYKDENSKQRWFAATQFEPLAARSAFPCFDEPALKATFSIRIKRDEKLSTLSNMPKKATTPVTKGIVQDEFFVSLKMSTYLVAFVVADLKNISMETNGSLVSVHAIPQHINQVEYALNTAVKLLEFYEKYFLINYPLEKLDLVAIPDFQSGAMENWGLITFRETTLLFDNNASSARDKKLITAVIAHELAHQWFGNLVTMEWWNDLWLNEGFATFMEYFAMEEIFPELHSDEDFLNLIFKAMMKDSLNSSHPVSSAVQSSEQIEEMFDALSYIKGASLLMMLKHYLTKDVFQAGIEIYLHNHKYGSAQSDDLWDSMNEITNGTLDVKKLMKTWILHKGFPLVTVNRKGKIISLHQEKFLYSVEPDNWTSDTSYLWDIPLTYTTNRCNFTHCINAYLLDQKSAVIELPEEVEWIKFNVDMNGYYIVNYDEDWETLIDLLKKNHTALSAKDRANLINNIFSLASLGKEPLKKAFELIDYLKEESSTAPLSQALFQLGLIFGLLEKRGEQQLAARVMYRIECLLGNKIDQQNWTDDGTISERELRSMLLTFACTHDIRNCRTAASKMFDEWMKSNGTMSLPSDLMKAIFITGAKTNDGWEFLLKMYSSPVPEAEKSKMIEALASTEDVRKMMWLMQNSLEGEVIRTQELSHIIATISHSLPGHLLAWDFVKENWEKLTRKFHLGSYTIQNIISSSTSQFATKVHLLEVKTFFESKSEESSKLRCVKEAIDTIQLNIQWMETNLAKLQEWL", "assay": "competition for [125I]Ang IV binding, E13 chicken chorioallantoic membranes"}
{"substance": "Nle^1-Y-I-amide (peptide)", "values": [{"measurement": "IC50", "result": 2.2, "unit": "µM"}]}
